For one substance, Concentration needed to block ET-1 induced E-cadherin down-regulation, relative to the 'IETD' inhibitor results are on record in patent US8597645.

For the assay, the target named is Caspase-8 (endogenous, in melanocytes and melanoma cells) (human) (UniProt Q14790). Description: cell-based or functional assay.
Caspase-8 (endogenous, in melanocytes and melanoma cells) (human), sequence (Q14790 whole entry): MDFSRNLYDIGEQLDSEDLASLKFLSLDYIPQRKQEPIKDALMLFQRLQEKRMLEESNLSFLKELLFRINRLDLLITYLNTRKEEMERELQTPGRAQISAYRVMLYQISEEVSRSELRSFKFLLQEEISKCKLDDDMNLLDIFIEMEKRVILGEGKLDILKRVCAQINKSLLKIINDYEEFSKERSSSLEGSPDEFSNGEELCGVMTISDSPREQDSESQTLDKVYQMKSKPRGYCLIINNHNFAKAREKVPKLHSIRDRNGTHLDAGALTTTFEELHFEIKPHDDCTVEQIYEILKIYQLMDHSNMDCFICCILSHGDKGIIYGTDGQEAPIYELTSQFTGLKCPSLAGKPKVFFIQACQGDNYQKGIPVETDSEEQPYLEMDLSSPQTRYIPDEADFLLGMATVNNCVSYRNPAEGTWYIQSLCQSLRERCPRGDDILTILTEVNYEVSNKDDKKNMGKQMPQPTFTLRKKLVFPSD

“Cell permeable caspase inhibitor containing the sequence DEVD (from UniProt P08620 7-22) (peptide)” returned a Concentration needed to block ET-1 induced E-cadherin down-regulation, relative to the 'IETD' inhibitor of 10 fold.
